Test results published in the DeepSol protein solubility set.

Assay: soluble on expression in E. coli; label from the status in PepcDB or PDB records

Row | Sequence | soluble on expression in E. coli
1 | MGSDKIHHHHHHMKHAFETLVGEVHAALQAGEQFTLGYSAEQSQFVRFNHAKVRQAGEVSQASAQLRLVRDGRQAEQQVTLSGDVQLDRQRLNVALEQLRQTLPLLALDPYLRLDENAWHSHSLQEPPLPALNEVLALLEREAGDLDLVGIYAAGPVCRGFASSFGAFGWHQANSFNVDWSLFHDNGQAVKANYAGQAWSADDFTARLRQAREQLGFLGRPAVTLKPGTYRAYLAPAAMDEVAGMLCWGGFSAQALATGNSALQRLYNGDARLSPLVSFTEQVSGSLSPAFSDEGAPRLDVPLIQQGEARQRLISARSAAEFELQANGADGYESPCALSLAPGNLASAQILERLGTGLYISNLWYLNYSDLPAARMTGLTRFATFWVEDGQIQGPVSTMRFDDSLYSLLGSQLEDLTQEREMILSTSTYGQRSTGSSHLPGALVKGLTLTL | not soluble
2 | MKRVRKAIIPAAGLGTRFLPATKAMPKEMLPIVDKPTIQYIVEEAVKSGIEDIIIVTGKTKRSIEDHFDNAFELEQNLLEKKKYELLEKVQASSKMVDIHYIRQKEPKGLGHAVWCARKFIGDEPFAVLLGDDIVQAEKPCLRQLIEEYDKTLSSVIGVQTVPEDETHRYGIIDPLEQEGRRYQVRNFVEKPAAGTAPSNLAIMGRYVLTPEIFMFLEQQHVGAGGEIQLTDAIQSLNEIQRVFAYDFEGKRYDVGEKLGFVQTTIEMALQHPELRDDMVTMMKKILEEQTNQES | not soluble
3 | ACQIFVRNLPFDFTWKMLKDKFNECGHVLYADIKMENGKSKGCGVVKFESPEVAERACRMMNGMKLSGREIDVRIDRNA | soluble
4 | GPGSMCTAHSQSYLPLPPPTRTSTHTLTANVTQLRCRRRCVTPAIRTSRPPPAVAPPAALPAAHRPCICLLLHDLSPLPLLVLPPSLPLCAAPLHAAAHLPSHRTPSRPPMSAYHSSNPVEARRAECARLQAKYPGHVAVVVEAAEKAGSKVHFLALPRDATVAELEAAVRQALGTSAKKVTLAIEGSTPAVTATVGDIADACKRDDGFLYVSVRTEQAMGGIAGLCFASDSGGI | not soluble
5 | MGSDKIHHHHHHMTLNIDQESCIKCGKCVRVCPSDIFTQERAGETIGLVRVESCIVCGHCVDVCPTGSVSHSEFPPEKTHTIDYSQMPTPEQVMLLIKSRRSNRTLTSRPVPKEMLDKIVEAAHSAPTATNSQSLSFTVVTDPRKLRQVSDYTIGVFDSLAKLLLNPVVKCVVKPFMKDVYKYVPVFNRLKEEHKAGKDPILRKATALLLIHTPKSNRFGSEDANLAYQNASLMAQSLGVSQIYMGFVLTAIRQEGKDTLAKTLGIDGKIQAIMALGIPAFKYPKYTDRKEIVKNYIE | not soluble
6 | MSLNFPGSSSLLIVGASTRAAACSAVRAGFQPVCADQFADRDLRAVSEVVIKIDEHCHWLEEILKREPQNWIYTGALENRPEVINAINQRHTLLGNAEESLKKVRDPFFLQDMLVDQPIAISPCLPVDTQTPPRELWLRKPRLSAAGQGISFADSHTTDPTDSTQYYLQQFQPGIPLSALYLACDDCCVLIGTAVQFIGNRALHATGFQFCGGMTLPSMPPEWRHALGKLGHNIARGCHLRGLFGCDLIWNPDGQPGLWLTEVNPRYTALTELFELQYCLPLLRWHFAACRSCDASSAVAGTLADELIQLLKTKEKRTLSTVSKGIMYAPTDLTTPDLPWESSPRQVAWQIPTIADVPDRGTRIPAGTPVCTLYGTGDDQGECLLSMADQILRCQGQIQPELPRDLSRNEVRNMLWPRKESEKLNFSGFFSSRNVSGSFLEDEGHHHHHH | soluble
7 | MNCYNKFAHIYDKLIRADVDYKKWSDFIIEKCVENNLVFDDYLDLACGTGNLTENLCPKFKNTWAVDLSQEMLSEAENKFRSQGLKPRLACQDISNLNINRKFDLITCCLDSTNYIIDSDDLKKYFKAVSNHLKEGGVFIFDINSYYKLSQVLGNNDFNYDDDEVFYYWENQFEDDLVSMYISFFVRDGEFYKRFDEEHEERAYKEEDIEKYLKHGQLNILDKVDCYSNKKVEKFTERITYLVKLGGKSNGR | soluble
8 | MSEKQINNFSLISRLFGNLFYRFPTDKVLADAFVWLQQEGLSQVWALDTDKESELALNSLQVKIDLNLLNEEYQKLFATNGKVMTAISAYGIDVEEFVNFRLVRNMPEVESADHFALLLLTASWLEDNSDSLVAQQEFFETFLLPCAAKFLTQVENQATLPFYRALALLTREILATMADELEEE | soluble
9 | MAYAYLFKYIIIGDTGVGKSCLLLQFTDKRFQPVHDLTIGVEFGARMITIDGKQIKLQIWDTAGQESFRSITRSYYRGAAGALLVYDITRRDTFNHLTTWLEDARQHSNSNMVIMLIGNKSDLESRREVKKEEGEAFAREHGLIFMETSAKTASNVEEAFINTAKEIYEKIQEGVFDINNEANGIKIGPQHAATNASHGSNQGGQQAGGGCC | soluble
10 | TSALAPVAAIIPPPPDVQPVIDKLAEYVARNGLKFETSVRAKNDQRFEFLQPWHQYNAYYEFKKQFFLQKEGGDSMQAVSAPE | soluble
11 | MGSDKIHHHHHHMSQTTVVNGVNVDQLMATIEQIKAKPEIAQFKFRATNQWMGGTHNQATIKDFYGACAEDDTRKPMVFDLDEPPVLLGENRGANPVEYLLVALSGCLTTSLVAHAAARGIALRGVKSRYEGDIDLRGFLGLSEEVPVGYREIRVFFSIDADLTDGQKEELIRMAQKYSPVYNTVAKPVPVAVLLDRG | not soluble
12 | MAHHHHHHMVIFDDVENSNRVGGNEGGIRPIFVQLTPNAPLPSEEYLRLVALSKAPPPPDSEGSTLHSARNCRERSARVNGRRSPTKTNVRPRPPVTATQKWGDNAMSLINSKEEAVQRHEFALHVRGARYCRLLETMLDSSDLQLEPLHYDPKDPNMGRRPNGTEGNPANSLPPVILPQATQKGCVALFTYLDLITKRVPSMLSKPLRAPLEELVQPWELEFLLYSCMGDDVRNAITHIDEDGTADKRGRAPTNDTRPSYYSTILEKAPRSVDLLLEVALLSDFLLVEPLRQLTCAFIASLALNASSEEELLQLSGLQRPMTEDELEPLYYQFPFLRPDNHAKN | not soluble
13 | MGSDKIHHHHHHQKEGSLKIGKEGAESGFINLRVEIPPGAFGKQKVLKITRLSDEERKLYPDVFVGDLYRVEFADGVDEFALKPIRLKYYFDAKYLRGENYNNLTFAYATEDGGYRIIPGSMIGKDERGYYVEAFTYHLSVFGVVLRSAGFQKHGIRLLREAVNSSGPAVLLVPGEDPTFEGVVKDNNIWETIFPDRTIMTYEYALYEPRSLAYSEMYRSFIEKEGRRSFIDFESDFLSQEILKYSQYEFDILAHGTGGLIVLRMLQRHPEVNNVRKVVLLSTPVQGTNVVNPLYFSSIFYGKDPEVLEDIFGIEWTKLKMLTLHIRNLIDTLGEVVQEILPDSQLVKELGGFSRNDVEIVSICGDTPPYGVDVSGTELERFYPEFVKGRGDGFVSIQSCRVGKVEQLSGNFYDLYSREENVAYIRELLKYEVQVFSGFRSDDYEEYLPSKNPELSEESAQKVVEVKETEGTEFPVLPVNILFENFLERIRSLELSSYLSGALVGKEVYIATESGVFAWDKKVLDKKIEFFKKIEDYASFVGEGDIFIIDNIGIKKYAPFPLVGDISDALITRNAIIYARVVPGGVRYYLFRNGAEKLIATSPGTTVRMKSENGNYLLITDGEVVAIGSDFKEKGRVLSSLFGEKVKIVDASFKDDAFYILLNDGSIAFVSSSRSETKNYGLAVPKKVLNFQGRILVVYDGVILDLSAGKAQRFDRGIIDVFPGNESLFIVFDEKVRVSVEEWWLSKD | not soluble
14 | MSLKLFITGIGSGLGKALVEEGIKRGYEVYALSRHLPEEFKEKIHFVKCDLLKVEEVQGCLFKLLSGVKELELAILNAGILGKFSDMKDISLHEIDEVMKVNLWSNKVIIDTLMELGIKVKTLIGISSGAARNCNRGWNAYSLSKAGLNCLLKLYSWELPETKVISLAPGLVLTPMLKEVMSQNEEKYPSIKRIKNAPKLTPEKTAEFIFSILPKLESVESGSFVDVREGHHHHHH | soluble
15 | MGSDKIHHHHHHMPTLTINQRLDALLPKLQDARLLSNRGIGNEIGFYIFDYDAEYEPLVQRYVDRLKLQLTSSPSGFASPSLSEQQDRAGSPIQLILLEIDLYKTILDILSERGVLKKAFELEATKGNAALAKTVAPLVRPDQVIAYIQKKLRGDEQLVIMTGVGASWPLLRSHSILNNLHPVLDKIPLVMFFPGSYDGHELRLFDTFKDDNYYRAFPLIPHQQHHL | not soluble
16 | MNYIRKLYKQDYRGFESLPHRRENVIEKYSVKSQRPLLKKYLVEDFGGMCIYCGWNCKRYDAASFHIEHIKSQIDNESLIDDYSNLALSCPICNTTKNKKALPSDLDPLGEDYKNLFYRNNRGAIVTNNDIEDRKKALSQQYIKILGLSKELYKLDYVQTSLNIIKRRLRQSDKINLELINSITEILDFIDDNYTRQSNLTLLEHHHHHH | not soluble
17 | MAHHHHHHMESKVPLFLYFMVTNHPEVKQYTELLCHQVDQANRRLKDENFGDVYQEFGKDAGLAIKLGMVDCLQEPGLMAKFHIDPHMFPLIYFVRNKVFCDKMVGVVTESHVKEAVEAFIDDAKLESKSESEGASLFQKVRRQDDDDENAMTLIAAAHGKMQAGDPAKGKQLFEKALRMSMEDMEVVKKRYGVPNKKMTPELWAKLKREPCYNSAPEALCGLAMCAMASKQRDEAFRLAARVREEFPFAPQDMRGVAEAVVRIELIQVVDYDPDTDNYMRLLKFDELVSEPAQFYKHHLKRAVAFYVEGVAGQAIEECIRLIRAEPKLLSALKEGGIVPNDLRLGPTAVTPARQVIRAIFEALGPTNERVEKGRKLLQLYL | not soluble
18 | MKVRFLQISDLHFQFQNYDTIVMRDKLLDFIEVLRRESDFDFLLLTGDIAHKGDVYNEDVKEYLNGIIKSMGLSKNNVHLVPGNHDISRDMTRTLLIDSIMKSPNPSEMLDKLDQKATNILVEGQRKFFDFYEDFMGVKYPEEDLHFLYQSEKYNVLSINTCLLSDKKGEEGTLLTAQMKLYKAIRKMNKEKNKGKVLNIAIGHHTLGCIESSERESIKAHFDDYFIDLYLAGHVHDSSFNITANTNENPFLELVSGAIIKDEYATPEFISVDVNLDNGETEVTYYIWNTEYKYWSKNNQGGRRLQEGKLNYKINRLESLIEKEIEDNDDKIDEDEFKSFIIDFHEYRESYKTFTSNFDNQIGLDKKFYDMKSGETFKRKFDSYSEYFGVINHIMDSTSYVSADKKELIAETIVDKYLEFHNQYNNGDEIFVKIVNEIYLECHSVLPYSKALTKKYIKILTCWCIYECEIFNDNKRSVKNDLEHHHHHH | soluble
19 | SLEEPPKAVELEGLAACEGEYSQKYSTMSPLGSGAFGFVWTAVDKEKNKEVVVKFIKKEKVLEDCWIEDPKLGKVTLEIAILSRVEHANIIKVLDIFENQGFFQLVMEKHGSGLDLFAFIDRHPRLDEPLASYIFRQLVSAVGYLRLKDIIHRDIKDENIVIAEDFTIKLIDFGSAAYLERGKLFYTFCGTIEYCAPEVLMGNPYRGPELEMWSLGVTLYTLVFEENPFCELEETVEAAIHPPYLVSKELMSLVSGLLQPVPERRTTLEKLVTDPWVTQPVNLADYTWEEVCRVNKPESGVLSAASLEMGNRSLSDVAQAQELCGG | not soluble
20 | MEKQKTFHVAVVGATGAVGEQMLNTLEKREFPIGKLTLLSSKRSAGKKLVFKGEEFTVQEATPESFEGVDIALFSAGGSVSKQLAPEAAKRGAIVVDNTSAFRMTENVPLVVPEVNENDLKEHNGIIANPNCSTIQMVVALEPVRQQYGLKRVIVSTYQAVSGAGAAAIEELHEQSQAILNGEEVKANVLPVSGDKKHFPIAFNAIPQIDKFQDNGFTFEEMKMINETKKIMHMPELEVAATCVRLPVVSGHSESVYIEVEKEGVTVEELKSLLANAEGIVLQDNPEEQLYPMPATAVGKNEVFVGRIRKDLNNDKGFHLWVVSDNLLKGAAWNSVQIAERLVKLQLV | not soluble
